Changes are numbered by the printed parent chain.
Tests used:
[1] = molecular target: T1, human thrombin receptor (PAR1) (human, UniProt P25116 42-425); assay: ELISA dose-response, purified MBP-Gαq on purified reconstituted PAR1 with thrombin receptor activating peptide
T1 sequence (looked up): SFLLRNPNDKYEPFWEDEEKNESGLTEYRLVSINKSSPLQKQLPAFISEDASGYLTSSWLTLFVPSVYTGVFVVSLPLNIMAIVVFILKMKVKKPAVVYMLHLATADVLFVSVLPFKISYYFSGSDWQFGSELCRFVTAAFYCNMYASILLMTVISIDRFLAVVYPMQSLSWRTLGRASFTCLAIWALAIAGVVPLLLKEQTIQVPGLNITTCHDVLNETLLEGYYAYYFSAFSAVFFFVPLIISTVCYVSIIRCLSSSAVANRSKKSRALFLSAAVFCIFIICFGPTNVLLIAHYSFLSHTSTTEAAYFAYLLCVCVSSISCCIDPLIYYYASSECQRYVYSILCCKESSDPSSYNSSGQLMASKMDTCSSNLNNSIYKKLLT

[2] = molecular target: T1, human thrombin receptor (PAR1); assay: cell-based or functional assay
[3] = molecular target: T2, light-activated bovine rhodopsin (metarhodopsin II) in rod outer segment membranes (bovine, UniProt P02699 1-348, retinylidene chromophore on Lys-296 (all-trans after light)); assay: ELISA of clone lysate on rhodopsin
T2 construct: whole, on cells; also called MII
Protocol: The methods of Example 7 repeated using rhodopsin screening with a Gt library. To identify the rank order of binding, the lysates were analyzed using ELISA methods in which the secondary antibody was conjugated to HRP. Following addition of the substrate, the microplate was read using a spectrophotometer. The binding is the OD₄₅₀ for wells with receptor—OD₄₅₀ for wells in which no receptor (control wells with empty lipid vesicles).

[4] = molecular target: T2, light-activated bovine rhodopsin …; assay: first screening of the Gαt library on light-activated rhodopsin
[5] = molecular target: LacI fusion clone 41 (Gt library, dark-adapted rhodopsin screen) (E. coli, UniProt P03023 1-360); assay: panning, LacI Gt library on immobilized ROS membranes kept in the dark
[6] = molecular target: LacI fusion clone 33/37 (Gt library, dark-adapted rhodopsin screen) (E. coli, UniProt P03023 1-360); assay: as above
[7] = molecular target: LacI fusion clone 17 (Gt library, dark-adapted rhodopsin screen) (E. coli, UniProt P03023 1-360); assay: as above
[8] = molecular target: LacI fusion clone 3 (Gt library, dark-adapted rhodopsin screen) (E. coli, UniProt P03023 1-360); assay: as above
[9] = molecular target: LacI fusion clone 2 (Gt library, dark-adapted rhodopsin screen) (E. coli, UniProt P03023 1-360); assay: as above
[10] = molecular target: LacI fusion clone 7 (Gt library, dark-adapted rhodopsin screen) (E. coli, UniProt P03023 1-360); assay: as above
[11] = molecular target: LacI fusion clone 26 (Gt library, dark-adapted rhodopsin screen) (E. coli, UniProt P03023 1-360); assay: as above
[12] = molecular target: LacI fusion clone 21 (Gt library, dark-adapted rhodopsin screen) (E. coli, UniProt P03023 1-360); assay: as above

**Q.** Which IC50 [1] does the source give for “purified maltose binding protein-Gαq (MBP-Gαq), native Gq C-terminal peptide fusion” here?
**A.** 214 nM

**Q.** With MGLQLNLKEYNAV [Gαq C-terminal minigene peptide (pcDNA-Gαq)] as the molecule, how does the “thrombin-mediated HA-MAPK activity in HMEC” value [2] read?
**A.** 57 % decrease

B1: LacI fusion clone L3 (Gt library) (other, E. coli, not shown: small tags and cut ends)
chain: MKPVTLYDVAEYAGVSYQTVSRVVNQASHVSAKTREKVEAAMAELNYIPNRVAQQLAGKQSLLIGVATSSLALHAPSQIVAAIKSRADQLGASVVVSMVERSGVEACKAAVHNLLAQRVSGLIINYPLDDQDAIAVEAACTNVPALFLDVSDQTPINSIIFSHEDGTRLGVEHLVALGHQQIALLAGPLSSVSARLRLAGWHKYLTRNQIQPIAEREGDWSAMSGFQQTMQMLNEGIVPTAMLVANDQMALGAMRAITESGLRVGADISVVGYDDTEDSSCYIPPLTTIKQDFRLLGQTSVDRLLQLSQGQAVKGNQLLPVSLVKRKTTLAPNTQTASPRALADSLMQLARQVSRLESGQILENLKDCGLF
**Q.** With B1 as the molecule, how does the “ELISA (OD450 with receptor minus OD450 without receptor)” value [3] read?
**A.** 0.839 OD450

B2: LacI fusion clone 13 (Gt library), IRGSLKDCGLF (other, E. coli, not shown: small tags and cut ends)
chain: B1 chain with L362R, E363G, N364S
notes: also called L20
**Q.** For B2, which “ELISA (OD450 with receptor minus OD450 without receptor)” value [3] is on record?
**A.** 0.423 OD450

B3: LacI fusion clone L33 (Gt library) (other, E. coli, not shown: small tags and cut ends)
chain: B1 chain with L362V, N364I, K366E
**Q.** For B3, which “ELISA (OD450 with receptor minus OD450 without receptor)” value [3] is on record?
**A.** 1.01 OD450

B4: LacI fusion clone L14 (Gt library) (other, E. coli, not shown: small tags and cut ends)
chain: B1 chain with I361L, L362R, F371L
**Q.** With B4 as the molecule, how does the “ELISA (OD450 with receptor minus OD450 without receptor)” value [3] read?
**A.** 0.833 OD450

B5: LacI fusion clone L10 (Gt library), IHDRLKDCGLF (other, E. coli, not shown: small tags and cut ends)
chain: B1 chain with L362H, E363D, N364R
notes: this is the first
**Q.** B5 was tested. Which “ELISA (OD450 with receptor minus OD450 without receptor)” value [3] did it give?
**A.** 0.506 OD450

B6: LacI fusion clone L38 (Gt library) (other, E. coli, not shown: small tags and cut ends)
chain: B1 chain with I361L, E363D, N364I
**Q.** For B6, which “ELISA (OD450 with receptor minus OD450 without receptor)” value [3] is on record?
**A.** 0.823 OD450

B7: LacI fusion clone L34 (Gt library) (other, E. coli, not shown: small tags and cut ends)
chain: B1 chain with N364S, K366N, D367E
**Q.** B7 was tested. Which “ELISA (OD450 with receptor minus OD450 without receptor)” value [3] did it give?
**A.** 0.603 OD450

B8: LacI fusion clone L15 (Gt library) (other, E. coli, not shown: small tags and cut ends)
chain: B1 chain with I361V, L362R, E363D, N364I
**Q.** How did the “ELISA (OD450 with receptor minus OD450 without receptor)” value [3] turn out when B8 was run?
**A.** 0.621 OD450

B9: LacI fusion clone 8 (Gt library) (other, E. coli, not shown: small tags and cut ends)
chain: B1 chain with I361L, K366R, L370M
notes: also called Peptide 8; HAP
**Q.** B9 was tested. Which “fold higher binding than the native sequence” value [4] did it give?
**A.** 1000 fold

B10: LacI fusion clone L6 (Gt library) (other, E. coli, not shown: small tags and cut ends)
chain: B1 chain with L362C
**Q.** With B10 as the molecule, how does the “ELISA (OD450 with receptor minus OD450 without receptor)” value [3] read?
**A.** 0.342 OD450

**Q.** For MGLQENLKDIMLQ [Gα12 C-terminal minigene peptide (pcDNA-Gα12)], which “thrombin-mediated HA-MAPK activity in HMEC” value [2] is on record?
**A.** 50 % decrease

B11: dark-adapted bovine rhodopsin in rod outer segment membranes (receptor, UniProt P02699 1-348, looked up)
chain: MNGTEGPNFYVPFSNKTGVVRSPFEAPQYYLAEPWQFSMLAAYMFLLIMLGFPINFLTLYVTVQHKKLRTPLNYILLNLAVADLFMVFGGFTTTLYTSLHGYFVFGPTGCNLEGFFATLGGEIALWSLVVLAIERYVVVCKPMSNFRFGENHAIMGVAFTWVMALACAAPPLVGWSRYIPEGMQCSCGIDYYTPHEETNNESFVIYMFVVHFIIPLIVIFFCYGQLVFTVKEAAAQQQESATTQKAEKEVTRMVIIMVIAFLICWLPYAGVAFYIFTHQGSDFGPIFMTIPAFFAKTSAVYNPVIYIMMNKQFRNCMVTTLCCGKNPLGDDEASTTVSKTETSQVAPA
modifications: 11-cis retinylidene chromophore on Lys-296
notes: whole, on cells; same protein as m1, left in the dark
**Q.** What does the source list for B11?
**A.** binding result [5]: binds; binding result [6]: binds; binding result [7]: binds; binding result [8]: binds; binding result [9]: binds; binding result [10]: binds; binding result [11]: binds; binding result [12]: binds

**Q.** How did the “thrombin-mediated HA-MAPK activity in HMEC” value [2] turn out when MGIKNNLKDCGLF [Gαi C-terminal minigene peptide (pcDNA-Gαi)] was run?
**A.** 59 % decrease

**Q.** Which “thrombin-mediated HA-MAPK activity in HMEC” value [2] does the source give for MGLHDNLKQLMLQ [Gα13 C-terminal minigene peptide (pcDNA-Gα13)] here?
**A.** 77 % decrease
